Experiments:
[1] = system: human iPS cells (Ff-I01 strain); test: Neural tissue / neuroepithelium formation in cell aggregates, bright field observation; type: cell-based
Method: At the time of the start of suspension culturing (day 0 after the start of suspension culturing, […]), Y27632 ([…]) were added to the above serum-free medium (FIG. 22). By day 2 after the start of suspension culturing, a cell aggregate was formed (step 2 completed, step 3 start) under any conditions. On day 3 or later from the start of suspension culturing, BMP4 was added under 3 conditions including the following conditions 1-3. • Condition 1: (+BMP4 addition once) On day 3 of suspension culturing, a medium (50 μl) free of Y27632 and SAG, and containing human recombinant BMP4 (manufactured by R&D) was added such that the final concentration of exogenous human recombinant BMP4 was 1.5 nM (55 ng/ml). On day 6 or later from the start of suspension culturing, a half amount of the medium was changed to a serum-free medium free of Y27632, SAG and human recombinant BMP4. • Condition 2: (+BMP4 addition twice) On day 3 of suspension culturing, a medium (50 μl) free of Y27632, SAG and containing human recombinant BMP4 (manufactured by R&D) was added such that the final concentration of exogenous human recombinant BMP4 was 1.5 nM (55 ng/ml). On day 6 from the start of suspension culturing, 50 μl of the medium was discarded, and 50 μl of a medium free of Y27632 and SAG and containing human recombinant BMP4 (manufactured by R&D) was added to maintain the final concentration of exogenous human recombinant BMP4 at 1.5 nM (55 ng/ml). On day 9 or later from the start of suspension culturing, a half amount of the medium was changed with a serum-free medium free of Y27632, SAG, and human recombinant BMP4. • Condition 3: (+BMP4 addition three times) On day 3 of suspension culturing, a medium (50 μl) free of Y27632, SAG and containing human recombinant BMP4 (manufactured by R&D) was added such that the final concentration of exogenous human recombinant BMP4 was 1.5 nM (55 ng/ml). On days 6 and 9 from the start of suspension culturing, 50 μl of the medium was discarded, and 50 μl of a medium free of Y27632 and SAG and containing human recombinant BMP4 (manufactured by R&D) was added to maintain the final concentration of exogenous human recombinant BMP4 at 1.5 nM (55 ng/ml). On day 12 or later from the start of suspension culturing, a half amount of the medium was changed with a serum-free medium free of Y27632, SAG and human recombinant BMP4. […]
On day 3 after the start of suspension culturing, a medium (50 μl) free of Y27632 and SAG, and containing human recombinant BMP4 (manufactured by R&D) was added such that the final concentration of exogenous human recombinant BMP4 was 1.5 nM (55 ng/ml) or 5 nM (183 ng/ml). […]

[2] = system: human iPS cells (Ff-I01 strain); test: Immunostaining of aggregate sections for retinal tissue marker Chx10; type: cell-based
From the text: (§1) Cell aggregates on day 16 after the start of suspension culturing were fixed with 4% para-formaldehyde to prepare frozen sections. These frozen sections were immunostained for Chx10 (anti-Chx10 antibody, Exalpha, sheep), which is one of the retinal tissue markers. These immunostained sections were observed under a fluorescence microscope.
Cell aggregates on day 16 after the start of suspension culturing were fixed with 4% para-formaldehyde to prepare frozen sections. These frozen sections were immunostained for Chx10 (anti-Chx10 antibody, Exalpha, sheep), which is one of the retinal tissue markers, and observed under a fluorescence microscope. […] In addition, the proportion of Chx10-positive cells in the total cells is about 80% under conditions with the addition of BMP4 twice to maintain the final concentration of 5 nM (FIG. 23, D)
The cell aggregates on day 19 after the start of suspension culturing were fixed with 4% para-formaldehyde to prepare frozen sections. These frozen sections were immunostained for Chx10 (anti-Chx10 antibody, Exalpha, sheep), which is one of the retinal tissue markers. These immunostained sections were observed under an inverted fluorescence microscope. As a result, the proportion of Chx10-positive cells in the total cells is about 70% under conditions with the addition of BMP4 twice to maintain the final concentration of 1.5 nM ([…]). In addition, the proportion of Chx10-positive cells in the total cells is about 90% under conditions with the addition of BMP4 twice to maintain the final concentration of 5 nM (FIG. 34, D).
as §1, with “The thus-prepared cell” for “Cell”, “19” for “16”, “markers, and” for “markers. These immunostained sections were”

B1: BMP4: human recombinant BMP4 (manufactured by R&D), BMP signal transduction pathway activating substance (protein, UniProt P12644 293-408, looked up)
Bone morphogenetic protein 4: SPKHHSQRARKKNKNCRRHSLYVDFSDVGWNDWIVAPPGYQAFYCHGDCPFPLADHLNSTNHAIVQTLVNSVNSSIPKACCVPTELSAISMLYLDEYDKVVLKNYQEMVVEGCGCR
[1]; SAG 300 nM 2 days in step 1, SAG 300 nM in step 2, BMP4 1.5 nM added 1, 2 or 3 times in step 3, day 16
  cell aggregate and neural tissue formation: a neural tissue could be formed efficiently
[1]; SAG 300 nM 2 days in step 1, SAG 1000 nM in step 2, BMP4 at 1.5 nM and 5 nM in step 3, day 16
  cell aggregate and neural tissue formation: a neural tissue could be formed efficiently
[1]; StemFit AK03N, SAG 300 nM 2 days in step 1, SAG 500 nM in step 2, BMP4 at 1.5 nM or 5 nM, day 19
  cell aggregate and neural tissue formation: a neural tissue can be formed efficiently
[2]; SAG 300 nM 2 days in step 1, SAG 300 nM in step 2, BMP4 1.5 nM added 2 or 3 times, day 16
  proportion of Chx10-positive cells in the total cells: about 80%
[2]; SAG 300 nM 2 days in step 1, SAG 300 nM in step 2, BMP4 1.5 nM added once (day 3), day 16
  proportion of Chx10-positive cells in the total cells: about 60%
[2]; StemFit AK03, SAG 300 nM 2 days in step 1, SAG 1000 nM in step 2, BMP4 added twice to maintain 1.5 nM, day 16
  proportion of Chx10-positive cells in the total cells: about 70%
[2]; StemFit AK03, SAG 300 nM 2 days in step 1, SAG 1000 nM in step 2, BMP4 added twice to maintain 5 nM, day 16
  proportion of Chx10-positive cells in the total cells: about 80%
[2]; StemFit AK03N, SAG 300 nM 2 days in step 1, SAG 500 nM in step 2, BMP4 added twice to maintain 1.5 nM, day 19
  proportion of Chx10-positive cells in the total cells: about 70%
[2]; StemFit AK03N, SAG 300 nM 2 days in step 1, SAG 500 nM in step 2, BMP4 added twice to maintain 5 nM, day 19
  proportion of Chx10-positive cells in the total cells: about 90%

Source: patent US12492373B2, “Production method for nerve tissue” (Racthera Co., Ltd., priority 2014, dated 2025)
